Experiments:
Her-3 = molecular target: T1, Her-3 (human, UniProt P21860 20-1342); experiment: IHC on FFPE 293H3-clone 1 cells over-expressing HER3
T1 construct: whole, on cells; In the IHC and VERATAG assays the protein stood in formalin-fixed, paraffin-embedded cells or tumor sections; also called ErbB3; c-erb-B3

Her-2 = molecular target: T2, Her-2 (human, UniProt P04626 23-1255); experiment: IHC on FFPE SKOV3 cells (high HER2, low HER3)
T2 construct: whole, on cells; also called ErbB2; c-Erb-B2

T1 sequence (P21860 20-1342): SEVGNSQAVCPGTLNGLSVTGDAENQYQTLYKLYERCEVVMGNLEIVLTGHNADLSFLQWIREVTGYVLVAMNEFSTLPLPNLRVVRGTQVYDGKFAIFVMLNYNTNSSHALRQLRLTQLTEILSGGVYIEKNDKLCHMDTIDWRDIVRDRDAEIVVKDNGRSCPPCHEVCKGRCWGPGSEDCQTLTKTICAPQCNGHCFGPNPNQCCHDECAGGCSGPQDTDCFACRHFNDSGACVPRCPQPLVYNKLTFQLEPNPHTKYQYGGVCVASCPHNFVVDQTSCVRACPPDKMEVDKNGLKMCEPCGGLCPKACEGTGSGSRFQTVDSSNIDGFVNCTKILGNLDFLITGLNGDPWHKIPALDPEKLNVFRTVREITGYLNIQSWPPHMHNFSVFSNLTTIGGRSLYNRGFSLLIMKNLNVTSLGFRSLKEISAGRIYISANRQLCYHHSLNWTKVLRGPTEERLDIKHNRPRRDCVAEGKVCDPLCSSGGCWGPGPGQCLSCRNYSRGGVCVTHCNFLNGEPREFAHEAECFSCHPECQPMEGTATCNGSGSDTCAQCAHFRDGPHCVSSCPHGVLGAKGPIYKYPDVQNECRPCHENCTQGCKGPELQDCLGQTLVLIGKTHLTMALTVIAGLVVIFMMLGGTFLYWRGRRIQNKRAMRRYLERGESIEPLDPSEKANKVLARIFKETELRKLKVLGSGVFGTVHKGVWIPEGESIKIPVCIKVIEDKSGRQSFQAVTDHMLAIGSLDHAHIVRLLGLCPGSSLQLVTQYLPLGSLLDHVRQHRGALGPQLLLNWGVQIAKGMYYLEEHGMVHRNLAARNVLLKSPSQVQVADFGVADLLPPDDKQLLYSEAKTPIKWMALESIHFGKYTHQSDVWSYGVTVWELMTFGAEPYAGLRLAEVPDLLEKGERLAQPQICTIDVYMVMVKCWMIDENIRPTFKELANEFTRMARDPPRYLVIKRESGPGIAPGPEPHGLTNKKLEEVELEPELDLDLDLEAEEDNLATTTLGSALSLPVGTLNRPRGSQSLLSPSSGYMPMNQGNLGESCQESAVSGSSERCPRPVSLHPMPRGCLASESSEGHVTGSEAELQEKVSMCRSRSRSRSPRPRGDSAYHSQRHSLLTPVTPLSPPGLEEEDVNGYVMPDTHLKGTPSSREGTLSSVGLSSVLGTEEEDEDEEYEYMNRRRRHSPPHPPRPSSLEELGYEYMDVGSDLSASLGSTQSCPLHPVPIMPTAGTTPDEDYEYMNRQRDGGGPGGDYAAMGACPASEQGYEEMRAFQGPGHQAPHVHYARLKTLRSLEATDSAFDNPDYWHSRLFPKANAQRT

B1: Her3.B9A11.H1 (antibody, V domains shown)
VH: EVQLQQPGTVLARPGASVRMSCKASGYTFTSYWMHWVKQRPGQGLEWIGAIYPGNSDTRDNQKFKGKAELTAVTSASTAYMELSSLTNEDSAVYYCTSYYFDGAGYFDFWGQGTTLTVSS
VL: DIVMSQSPSSLAVSAGEKVTLSCKSSQSLLNSRTRKNYLAWYQQKPGQSPKLLIYWASTRESGVPDRFTGSGSGTDFTLTVSSVQAEDLAVYYCKQSYNLWTFGGGTKLEIK
notes: Mouse hybridoma monoclonal antibody; The matched isotype control is IgG1; also called B9A11-biotin
B1: binds (Her-3); no binding (Her-2).
